Reference: patent US8540999B2, “Allergenic proteins and peptides from Japanese cedar pollen” (Merck Patent GmbH, priority 1991, dated 2013)

Key:
Cry j I reactive T cells = experiment: T cell proliferation assay, Cry j I primed T cell lines, modified peptides (Example 11); format: cell-based, human; conditions: panel of thirty-nine patients, FIG. 21
Protocol: Long term T cell lines were established by stimulation of 2×10^6 PBL/ml in bulk cultures of complete medium (RPMI-1640, 2 mM L-glutamine, 100 U/ml penicillin/streptomycin, 5×10^−5M 2-mercaptoethanol, and 10 mM HEPES supplemented with 5% heat inactivated human AB serum) with 20 μg/ml of partially purified native Cry j I (75% purity containing three bands similar to the three bands in FIG. 2) for 6 days at 37° C. in a humidified 5% CO2 incubator to select for Cry j I reactive T cells. This amount of priming antigen was determined to be optimal for the activation of T cells from most cedar pollen allergic patients. Viable cells were purified by LSM centrifugation and cultured in complete medium supplemented with 5 units recombinant human IL-2/ml and 5 units recombinant human IL4/ml for up to three weeks until the cells no longer responded to lymphokines and were considered “rested”. The ability of the T cells to proliferate to selected Cry j I peptides, partially purified Cry j I, affinity purified Cry j I, or positive (PHA) controls or negative controls (medium only) was then assessed. […]
The maximum response in a titration of each peptide is expressed as the stimulation index (S.I.). […]

allergic patient IgE [1] = experiment: Direct ELISA, IgE binding to rCry j I and Cry j I peptides (Example 8); parameters: species or system human; conditions: PHP (15 patients), FIG. 15
Protocol: The recombinant Cry j I protein (rCry j I), expressed in bacteria and then purified (as described in Example 5), has been examined for IgE reactivity. The first method applied to this examination was direct ELISA where wells were coated with the recombinant Cry j I and IgE binding was assayed on individual patients. FIG. 9 is the graphic representation of this direct ELISA.
To analyze IgE reactivity to selected Cry j I peptides a direct ELISA format was used. ELSIA wells were coated with 25 peptides derived from Cry j I and assayed for IgE binding. FIG. 15a and 15b are graphs of these binding results using PHP (15 patients) as the cedar pollen allergic IgE source. This pool of plasma was formulated for enrichment of IgE that could bind to denatured SPE (as determined by direct ELISA) and therefore increase the chance of reactivity toward the peptides.

allergic patient IgE [2] = experiment: Competition ELISA, wells coated with Japanese cedar pollen SPE; format: binding, human
Protocol: In the competition assay, ELISA wells were coated with Japanese cedar pollen SPE and then allergic patient IgE binding was measured in the presence of competing purified native Cry j I in solution. The source of allergic IgE in these assays was either the pool of plasma from 15 patients (denoted PHP) or seven individual plasma samples from patients with a Japanese cedar MAST score of 2.5 or greater. The competition assay using the pooled human plasma samples compares the competitive binding capacity of purified native Cry j I to Japanese cedar pollen SPE and an irrelevant allergen source, rye grass SPE. […] This assay was repeated with individual patients as a measure of the range of the IgE response within the allergic population.

B1: purified native Cry j I: major allergen of Japanese cedar pollen, biochemically purified in the native form (protein)
chain: DNPIDSCWRGDSNWAQNRMKLADCAVGFGSSTMGGKGGDLYTVTNSDDDPVNPAPGTLRYGATRDRPLWIIFSGNMNIKLKMPMYIAGYKTFDGRGAQVYIGNGGPCVFIKRVSNVIIHGLYLYGCSTSVLGNVLINESFGVEPVHPQDGDALTLRTATNIWIDHNSFSNSSDGLVDVTLTSTGVTISNNLFFNHHKVMLLGHDDAYSDDKSMKVTVAFNQFGPNCGQRMPRARYGLVHVANNNYDPWTIYAIGGSSNPTILSEGNSFTAPNESYKKQVTIRIGCKTSSSCSNWVWQSTQDVFYNGAYFVSSGKYEGGNIYTKKEAFNVENGNATPQLTKNAGVLTCSLSKRC
T cell line response (Cry j I reactive T cells): All but one of the thirty-nine T cell lines responded | IgE binding, direct ELISA (allergic patient IgE [1]): only specific IgE detected | competition for IgE binding to coated Japanese cedar pollen SPE (allergic patient IgE [2]; pooled human plasma (PHP), 15 patients, FIG. 6): competes very well | competition for IgE binding to coated Japanese cedar pollen SPE (allergic patient IgE [2]; seven individual patients, FIG. 7): could be competed
